Test results: publication PMC8732845, “Novel interaction between neurotrophic factor-α1/carboxypeptidase E and serotonin receptor, 5-HTR1E, protects human neurons against oxidative/neuroexcitotoxic stress via β-arrestin/ERK signaling” (Cellular and Molecular Life Sciences: CMLS, 2021)

Biological target: 5-hydroxytryptamine receptor 1-E (5-HTR1E) on stably transfected HEK293 cells (human, UniProt P28566 1-365)
Assay: cell-based or functional assay

Chain of 5-hydroxytryptamine receptor 1-E (5-HTR1E) on stably transfected HEK293 cells (P28566 whole entry): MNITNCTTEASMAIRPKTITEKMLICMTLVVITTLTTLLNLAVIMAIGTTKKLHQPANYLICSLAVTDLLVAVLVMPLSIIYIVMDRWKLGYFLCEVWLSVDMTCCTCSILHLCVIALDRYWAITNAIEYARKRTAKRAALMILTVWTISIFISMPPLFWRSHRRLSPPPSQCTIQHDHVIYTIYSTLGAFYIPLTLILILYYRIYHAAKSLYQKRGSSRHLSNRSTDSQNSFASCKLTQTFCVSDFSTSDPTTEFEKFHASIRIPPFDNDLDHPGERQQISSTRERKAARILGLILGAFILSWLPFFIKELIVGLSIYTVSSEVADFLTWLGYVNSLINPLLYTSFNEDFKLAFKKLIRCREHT

B1: Recombinant mouse NF-α1/CPE (neurotrophic factor-α1/carboxypeptidase E), unlabeled (ligand)
chain: not shown
In the case of B1, the “CREB phosphorylation (Western blot, pCREB/tCREB) in 5-HTR1E stable cells, 50 nM NF-α1/CPE, 10–60 min (value after 20 min); not in control HEK293 cells” value is reported as 1.3 fold and the “phosphorylation of ERK 1/2 (Western blot, pERK/tERK) in 5-HTR1E stable HEK293 cells, 0–50 nM NF-α1/CPE for 5–15 min; not in control HEK293 cells” value is reported as 3.4 fold.
